Source: patent US20170334950

Tests used:
[1] = biological target: FLT3 Artificial Substrate (FAS) candidate sequence A
[2] = biological target: FLT3 Artificial Substrate (FAS) candidate sequence B
[3] = biological target: FLT3 Artificial Substrate (FAS) candidate sequence C
[4] = biological target: FLT3 Artificial Substrate (FAS) candidate sequence E
[5] = biological target: FLT3 Artificial Substrate (FAS) candidate sequence F
[6] = biological target: FLT3 Artificial Substrate (FAS) candidate sequence G
[7] = biological target: FLT3 Artificial Substrate (FAS) candidate sequence H
[8] = biological target: FLT3 Artificial Substrate (FAS) candidate sequence D

Row | Protein | phosphorylation, in vitro kinase assay [1] | phosphorylation, in vitro kinase assay [2] | phosphorylation, in vitro kinase assay [3] | phosphorylation, in vitro kinase assay [4] | phosphorylation, in vitro kinase assay [5] | phosphorylation, in vitro kinase assay [6] | phosphorylation, in vitro kinase assay [7] | phosphorylation, in vitro kinase assay, 60-minute incubation [1] | phosphorylation, in vitro kinase assay [8]
1 | recombinant FLT3-D835Y mutant kinase (protein) HKYKKQFRYESQLQMVQVTGSSDNEYFYVDFREYEYDLKWEFPRENLEFGKVLGSGAFGKVMNATAYGISKTGVSIQVAVKMLKEKADSSEREALMSELKMMTQLGSHENIVNLLGACTLSGPIYLIFEYCCYGDLLNYLRSKREKFHRTWTEIFKEHNFSFYPTFQSHPNSSMPGSREVQIHPDSDQISGLHGNSFHSEDEIEYENQKRLEEEEDLNVLTFEDLLCFAYQVAKGMEFLEFKSCVHRDLAARNVLVTHGKVVKICDFGLARYIMSDSNYVVRGNARLPVKWMAPESLFEGIYTIKSDVWSYGILLWEIFSLGVNPYPGIPVDANFYKLIQNGFKMDQPFYATEEIYIIMQSCWAFDSRKRPSFPNLTSFLGCQLADAEEAMYQNVDGRVSECPHTYQNRRPFSREMDLGLLSPQAQVEDS | Candidate sequences A, B, C displayed higher levels of phosphorylation by FLT3-D835Y compared to FL-Abltide | Candidate sequences A, B, C displayed higher levels of phosphorylation by FLT3-D835Y compared to FL-Abltide | Candidate sequences A, B, C displayed higher levels of phosphorylation by FLT3-D835Y compared to FL-Abltide | Sequences E, F and G were also phosphorylated by FLT3-D835Y but at lower levels than FL-Abltide | Sequences E, F and G were also phosphorylated by FLT3-D835Y but at lower levels than FL-Abltide | Sequences E, F and G were also phosphorylated by FLT3-D835Y but at lower levels than FL-Abltide | sequence H showed no phosphorylation | – | –
2 | recombinant wild type FLT3 kinase (FLT3-WT) (protein) HKYKKQFRYESQLQMVQVTGSSDNEYFYVDFREYEYDLKWEFPRENLEFGKVLGSGAFGKVMNATAYGISKTGVSIQVAVKMLKEKADSSEREALMSELKMMTQLGSHENIVNLLGACTLSGPIYLIFEYCCYGDLLNYLRSKREKFHRTWTEIFKEHNFSFYPTFQSHPNSSMPGSREVQIHPDSDQISGLHGNSFHSEDEIEYENQKRLEEEEDLNVLTFEDLLCFAYQVAKGMEFLEFKSCVHRDLAARNVLVTHGKVVKICDFGLARDIMSDSNYVVRGNARLPVKWMAPESLFEGIYTIKSDVWSYGILLWEIFSLGVNPYPGIPVDANFYKLIQNGFKMDQPFYATEEIYIIMQSCWAFDSRKRPSFPNLTSFLGCQLADAEEAMYQNVDGRVSECPHTYQNRRPFSREMDLGLLSPQAQVEDS | – | The remaining sequences did not get phosphorylated by FLT3-WT | – | The remaining sequences did not get phosphorylated by FLT3-WT | The remaining sequences did not get phosphorylated by FLT3-WT | The remaining sequences did not get phosphorylated by FLT3-WT | The remaining sequences did not get phosphorylated by FLT3-WT | Sequence A showed a similar level of phosphorylation compared to Abltide over a 60-minute incubation | The remaining sequences did not get phosphorylated by FLT3-WT
